Measurements: US20070172423A1, “Composition and method for modulating vasculogenesis for angiogenesis” (priority 1998, published 2007)

Key:
hSMC = hSMC proliferation assay; type: cell-based, human; settings: two days, different concentrations
Protocol: Cell migration assays were performed on growth arrested confluent HMVEC, BAEC or hSMC cells. Cell monolayers were wounded with a rubber policeman and washed with serum-free medium. Dishes were then incubated for 20 hours in serum-free medium containing VEGF165, PDGF-AA, (R&D Systems, Minneapolis USA) or PDGF-CC. Each assay included two dishes per condition and was repeated three times independently. Cells were photographed at 40× magnification, and migration percentage corresponding to the ratio between area of the cells and the total area of the wound (Biocom visiol@b 2000 version 4.52, San Diego). For HMVEC proliferation assay, cells were seeded in 96-well plates (5 wells per condition), and incubated with VEGF, PDGF-AA, or PDGF-CC (50 ng/ml) after serum starvation. After 7 days, viable cells were counted using the cell Titer-glo luminescent cell viability assay. For NIH-3T3 and hSMC proliferation assay, cells cultured in 96-well plates were serum-starved overnight, followed by treatment with growth factors at different concentrations. Two days later, cell numbers were counted and proliferation percentage calculated, using cells cultured in medium containing 10% serum as control. Aortic ring assay was performed as described 51. […] Aortic rings were analysed at day 9 of culturing. […]

PDGFR-α = PDGFR-α expression in gastrocnemius muscle by RNAse protection analysis; type: in vivo, mouse; settings: 4.5 μg daily, day 2 after ligation, compared to vehicle
Protocol: RNase protection analysis (RPA) was performed according to the manufacturer's protocol (Ambion) to investigate gene expression at mRNA level. Riboprobes were prepared using RNA polymerase (Promega) and ^32P-UTP (Amersham). Mouse β-actin cDNA (250 bp, Ambion) was used as an internal control. For Western blot assay, subconfluent cells were rinsed with cold PBS supplemented with 5 µg/ml of antiprotease cocktail, lysed in RIPA buffer and analyzed on 10% acrylamide SDS PAGE in reducing condition. […] The precipitants were analysed on SDS-PAGE, and immunoblotted using a monoclonal anti-phosphotyrosine antibody (Santa Cruz).
To further verify the angio/arteriogenic activity of PDGF-CC in vivo, the effect of PDGF-CC in an established mouse model of hind limb ischemia is investigated (Luttun et al., Nat Med, 2002 1:1). PDGFR-α expression was quantified by RNAse protection analysis in the gastrocnemius muscle, which becomes highly ischemic after ligation of the femoral artery (Deindl et al., Circ Res, 2001 89:779-86; Couffinhal et al., American Journal of Pathology, 1998 152:1667-1679). […] Revascularization of the ischemic gastrocnemius muscle, which only occurred in those regions where regenerating muscle replaced the necrotic avascular muscle, was scored after continuous delivery, by osmotic minipump, of 4.5 μg PDGF-CC per day for one week after femoral artery ligation. […]

[1] = test system: endothelial progenitor cells (EPCs); test: EPC mobilization assay; type: in vivo, mice
Protocol: For EPC mobilization assay, mice were treated with PDGF-CC protein (4.5 μg/day) immediately after femoral artery ligation using subcutaneously implanted osmotic minipumps (Alzet, type 2001). After two or five days, mice were sacrificed and spleens harvested for EPC analysis using procedures described previously (Asahara et al., Circ Res, 1999 85:221-8; Dimmeler et al., J. Clin. Invest., 2001 108:391-397). Spleens were mechanically minced using syringe plungers and laid over Ficoll to isolate splenocytes. Splenocytes were seeded into fibronectin-coated 24-well plates in 0.5 ml EBM medium. After three weeks of culturing, adherent cells were stained for Dil-Ac-LDL/lectin and number of the positive cells counted. Late outgrowth EPCs (after 3 weeks of culture) were identified by metabolic uptake of DiI-acetylated-LDL (Molecular Probes) and positive staining of Alexa 488-labeled isolectin B4 (Molecular Probes). Quantification of the EPC density was performed by confocal microscopy in five microscopic fields at 200× magnification, and average EPC density calculated.
To examine the possible mechanism of how PDGF-CC stimulates vessel growth and maturation, we next assessed its effects on vascular endothelial progenitor cells (EPCs). […] By scoring after 3 weeks, only late-outgrowth EPCs, but not surviving sloughed-off endothelial cells, are selectively assayed (Lin et al., J Clin Invest, 2000 105:71-7; Rafii, S., J Clin Invest, 2000 105:17-9).

B1: PDGF-CC: recombinant human PDGF-CC core domain homodimer, residues 230-345 of full-length PDGF-C (SEQ ID NO:40), produced in baculovirus infected insect cells (protein)
chain: GRKSRVVDLNLLTEEVRLYSCTPRNFSVSIREELKRTDTIFWPGCLLVKRCGGNCACCLHNCNECQCVPSKVTKKYHEVLQLRPKTGVRGLHKSLTDVALEHHEECDCVCRGSTGG
modifications: homodimer; PDGF-C core domain
proliferation of cultured hSMC cells (hSMC): stimulated
PDGFR-α expression in gastrocnemius muscle (PDGFR-α): almost completely restored
mobilization of EPCs ([1]; baseline conditions (no ischemia)): did not affect
augmentation of EPC mobilization ([1]; femoral artery ligation, day five): persisted to day five, albeit at a lower level
augmentation of EPC mobilization above control group ([1]; femoral artery ligation, two days, 4.5 μg/day via minipump): approximately 3 fold
augmentation of EPC mobilization compared with the vehicle group (FIG. 38 legend) ([1]; from day 2 to day 5 after hind limb ischemia): ~4 fold
